Consider one substance from patent US12029792B2, “Stereocomplexes for the delivery of anti-cancer agents” (priority 2018, dated 2024).

Data set [1] is described as follows: Tolerance of formulations in mice without tumors. The class given is in vivo. The conditions noted are these: healthy mice, tail vein days 1, 8, 15, 22. On the procedure: Healthy mice (n=5 for each treatment group) were injected on days 1, 8, 15, and 22 of a 28-day trial in the tail vein with either the DM1-containing prodrug at 4 mg/kg, the DM1-containing prodrug plus mPEG-PLLA at 4 mg/kg, or the stereocomplex with 4 mg/kg DM1 and 27 mg/kg DTX per injection and body weight was monitored to determine tolerance of the treatments. […] Healthy mice (n=5 for each treatment group) were injected with complex at 3.6 mg/kg DM1 once/week for total three injections, at 5 mg/kg DM1 once/two weeks for total two injections and at 7 mg/kg DM1 only once, respectively.

Data set [2] is described as follows: In vitro release of DM1 by dialysis with or without GSH. It counts as physicochemical. Here is the method: The release of poly-DM1 was performed by dialysis in phosphate buffered saline (pH 7.4, containing 0.2% w/v polysorbate 80) with or without 10 mM glutathione (GSH). Briefly, 1 mL of the poly-DM1 formulation with the concentration of DM1 adjusted to 0.5 mg/mL by PBS was placed in a dialysis bag (MWCO=3.5k Da), which was sealed. After being immediately immersed in 10 mL release medium, the sample was incubated at 37° C. At scheduled time intervals (4, 8, 24, 48 h), 1 mL of the external release medium was taken out and replenished with an equal volume of fresh medium. All released samples were freeze-dried and the amount of released DM1 was determined using HPLC measurements as described previously.
Release of DM1 from the stereocomplex over time, with and without glutathione (GSH) was measured at pH 7.4; results are presented in FIG. 16B. DM1 is released from the isolated prodrug most quickly in the presence of GSH (squares) and more slowly from the stereocomplex (circles). In the absence of glutathione, DM1 is essentially not released from either the isolated prodrug or the complex (triangles and inverted triangles at 0% cumulative release). Thus, conjugation of DM1 with a redox-sensitive disulfide linker prohibits premature release of DM1 without GSH.

The test system of data set [3] is MiA PaCa-2 pancreatic tumor. Put plainly: Subcutaneous MiA PaCa-2 pancreatic tumor model. It counts as in vivo, mice. The conditions noted are these: four injections for D-DM1, two injections for the stereocomplex. On the procedure: In vivo antitumor efficacy of the complex was assessed in a subcutaneous MiA PaCa-2 pancreatic tumor model. MiA PaCa-2 cell suspensions were injected subcutaneously on the backs of mice to establish the tumor model. When tumor volume reached approximately 140 mm^3, groups of tumor bearing mice (n=5) were injected through the tail vein on day 1 and day 14 of an approximately 40-day trial.
Antitumor efficacy and toxicity for the stereocomplex and DM1-containing prodrug were assessed in a subcutaneous MiaPaCa-2 pancreatic tumor model. MiA PaCa-2 cell suspensions were injected subcutaneously on the backs of mice to establish the tumor model. When tumor volume reached approximately 140 mm^3, groups of tumor-bearing mice (n=5) were injected with treatment through the tail vein.

Data set [4] relates to CNE nasopharyngeal tumor. Put plainly: Subcutaneous CNE nasopharyngeal tumor model. The class given is in vivo, mice. Conditions: four injections once per week; 4 mg/kg DM1 (complex also 26 mg/kg DTX). Here is the method: Antitumor efficacy and toxicity for the stereocomplex and DM1-containing prodrug were assessed in a subcutaneous CNE nasopharyngeal tumor model when the treatment is delivered via intravenous injection. Cell suspensions were injected subcutaneously on the backs of mice to establish the tumor model. When tumor volume reached approximately 100 mm^3, groups of tumor bearing mice (n=5) were injected with the complex through the tail vein.

In the case of mPEG-PDLA-SS-DM1 [D-DM1], in data set [1] (4 mg/kg DM1), the “tail swelling and ulceration” value was “two mice showed tail swelling and ulceration on days 8-14”. Further, the Body weight result in data set [1] (4 mg/kg DM1 (stereocomplex also 27 mg/kg DTX), 28-day trial) is reported as “increased slightly”. For the same substance, the “cumulative release of DM1” value in data set [2] (pH 7.4, in the absence of glutathione) was determined as 0%. The “Release of DM1 over time” value in data set [2] (pH 7.4, in the presence of GSH (10 mM)) was “most quickly”. In addition, in data set [3], the “antitumor effect (tumor volume)” value is “almost the same antitumor effect”; the “toxicity: mouse death and body weight” value was “induced mouse death and obvious body weight decrease”. The tumor volume result in data set [4] is “tumor volume increased significantly”.
